# Source: US20130315910A1 (Xencor, published 2013)
# T1: human FcγRIIb receptor protein (R&D Systems) (human, UniProt P31994 46-217)
# T1 construct: Bought protein injected over captured antibody in Biacore; also called CD32b
# T1 sequence (looked up): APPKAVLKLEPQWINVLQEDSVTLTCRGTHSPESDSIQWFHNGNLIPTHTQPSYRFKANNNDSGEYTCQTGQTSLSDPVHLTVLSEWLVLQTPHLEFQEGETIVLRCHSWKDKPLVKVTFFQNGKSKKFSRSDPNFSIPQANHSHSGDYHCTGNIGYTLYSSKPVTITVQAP
# T2: human FcγRIIa (131R), His- and GST-tagged (human, UniProt P12318 34-217)
# T2 construct: Expressed in HEK293T cells, purified by nickel chromatography; also called R131 FcγRIIa; not shown: 6xHis and GST tags of the pTT5 vector
# T2 sequence (looked up): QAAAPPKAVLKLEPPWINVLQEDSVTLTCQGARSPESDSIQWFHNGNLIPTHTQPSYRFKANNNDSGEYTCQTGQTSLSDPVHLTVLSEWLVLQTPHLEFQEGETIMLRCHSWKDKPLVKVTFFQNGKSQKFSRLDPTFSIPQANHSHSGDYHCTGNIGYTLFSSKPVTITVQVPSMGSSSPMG
# T3: human FcγRIIa (131H), His- and GST-tagged (human, UniProt P12318 34-217)
# T3 construct: also called H131 FcγRIIa; HIIa; not shown: 6xHis and GST tags of the pTT5 vector
# T3 sequence (looked up): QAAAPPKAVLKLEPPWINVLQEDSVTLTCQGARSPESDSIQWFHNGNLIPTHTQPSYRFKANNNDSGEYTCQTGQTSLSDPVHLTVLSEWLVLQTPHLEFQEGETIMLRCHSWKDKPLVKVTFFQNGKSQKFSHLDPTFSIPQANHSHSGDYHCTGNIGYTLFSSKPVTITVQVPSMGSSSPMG
# T4: cynoFcγRIIb (Macaca fascicularis, UniProt A0A140HDP4)
# T4 construct: extracellular region, C-terminal His- and GST-tag; also called cynomolgus monkey FcγRIIb
# T4 sequence (receptor extracellular region): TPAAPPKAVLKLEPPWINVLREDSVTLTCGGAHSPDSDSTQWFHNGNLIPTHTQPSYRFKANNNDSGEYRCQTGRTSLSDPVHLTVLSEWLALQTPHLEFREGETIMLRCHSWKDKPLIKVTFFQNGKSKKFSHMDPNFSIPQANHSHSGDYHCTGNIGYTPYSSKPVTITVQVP
# T5: mFcγRIIb (Mus musculus, UniProt P08101)
# T5 construct: extracellular region, C-terminal His- and GST-tag; also called mouse FcγRII
# T5 sequence (receptor extracellular region, looked up): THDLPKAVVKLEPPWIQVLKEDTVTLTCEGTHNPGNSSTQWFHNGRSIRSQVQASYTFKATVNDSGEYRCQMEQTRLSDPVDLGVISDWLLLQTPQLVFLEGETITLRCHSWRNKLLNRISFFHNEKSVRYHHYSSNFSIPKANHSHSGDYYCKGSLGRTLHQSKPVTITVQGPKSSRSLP
# T6: mFcγRIV
# T6 construct: also called mouse FcγRIV; not shown: C-terminal His and GST tags (named only on our card)
# T6 chain: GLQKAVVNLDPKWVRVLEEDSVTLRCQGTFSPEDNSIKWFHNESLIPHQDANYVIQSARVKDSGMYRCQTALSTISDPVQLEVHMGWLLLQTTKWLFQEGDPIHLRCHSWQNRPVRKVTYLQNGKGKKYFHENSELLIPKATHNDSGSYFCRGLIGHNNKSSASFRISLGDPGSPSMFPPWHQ
# Assays:
# [1] = target: T1, human FcγRIIb receptor protein (R&D …); assay: SPR
# [2] = target: T7, human FcγRI receptor protein (R&D Systems) (human, UniProt P12314 16-288); assay: SPR
# T7 construct: also called soluble FcγRI; solFcγRI
# [3] = target: T2, human FcγRIIa (131R), His- and …; assay: SPR
# [4] = target: T3, human FcγRIIa (131H), His- and …; assay: SPR
# [5] = target: T8, human FcγRIIIa (158V), His- and GST-tagged (human, UniProt P08637 17-208); assay: SPR
# T8 construct: also called V158 FcγRIIIa; VIIIa; not shown: 6xHis and GST tags of the pTT5 vector
# cynoFcγRIIb [6] = target: T4, cynoFcγRIIb; assay: SPR
# mFcγRIIb = target: T5, mFcγRIIb; assay: SPR, off-rate
# mFcγRIV = target: T6, mFcγRIV; assay: SPR, off-rate
# cynoFcγRIIIa = target: T9, cynoFcγRIIIa (Macaca fascicularis, UniProt Q8SPW2); assay: SPR, off-rate
# T9 construct: extracellular region, C-terminal His- and GST-tag; also called cynomolgus monkey FcγRIIIa
# cynoFcγRIIb [7] = target: T4, cynoFcγRIIb; assay: SPR, off-rate
# 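Wherever Fold vs WT IgG1 (off-rate) is given: fold improvement over WT IgG1 so higher means slower dissociation than WT.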
# T9 sequence (Q8SPW2 17-208): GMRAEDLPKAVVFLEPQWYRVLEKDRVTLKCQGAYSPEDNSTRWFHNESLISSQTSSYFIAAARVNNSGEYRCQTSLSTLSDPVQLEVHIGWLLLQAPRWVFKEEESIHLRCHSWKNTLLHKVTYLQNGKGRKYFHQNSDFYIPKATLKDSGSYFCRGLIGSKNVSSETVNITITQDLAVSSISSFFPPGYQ
# T7 sequence (P12314 16-288 limits assumed): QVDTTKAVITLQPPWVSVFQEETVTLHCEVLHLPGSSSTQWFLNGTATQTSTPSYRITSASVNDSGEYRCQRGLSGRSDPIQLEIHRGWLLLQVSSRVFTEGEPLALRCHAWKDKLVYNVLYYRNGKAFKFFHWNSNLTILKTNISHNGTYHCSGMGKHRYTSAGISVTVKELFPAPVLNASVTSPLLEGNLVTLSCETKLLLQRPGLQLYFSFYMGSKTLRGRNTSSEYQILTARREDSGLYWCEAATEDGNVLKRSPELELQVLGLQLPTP
# T8 sequence (P08637 17-208 F176V): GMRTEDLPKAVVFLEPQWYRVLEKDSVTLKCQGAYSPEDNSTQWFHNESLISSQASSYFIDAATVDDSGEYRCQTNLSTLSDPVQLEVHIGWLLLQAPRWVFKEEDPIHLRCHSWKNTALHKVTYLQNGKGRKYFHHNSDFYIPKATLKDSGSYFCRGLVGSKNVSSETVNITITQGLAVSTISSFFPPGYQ
Binder,Fold vs WT IgG1 [1] [fold],Kd [1] [µM],Fold vs WT IgG1 [2] [fold],Kd [2] [µM],Fold vs WT IgG1 [3] [fold],Kd [3] [µM],binding result [4],binding result [5],Fold vs WT IgG1 (off-rate) (cynoFcγRIIb [6]) [fold],binding result (mFcγRIIb),binding result (mFcγRIV),binding result (cynoFcγRIIIa),binding result (cynoFcγRIIb [7]),binding result [1],binding result [3]
"G236N/S267E (antibody, human IgG1, kappa, HuAM4G7 anti-CD19 IgG1 (m1) with these Fc substitutions, EU index; copies: 2 + 2) heavy: not shown light: DIVMTQSPATLSLSPGERATLSCRSSKSLQNVNGNTYLYWFQQKPGQSPQLLIYRMSNLNSGVPDRFSGSGSGTEFTLTISSLEPEDFAVYYCMQHLEYPITFGAGTKLEIKRTVAAPSVFIFPPSDEQLKSGTASVVCLLNNFYPREAKVQWKVDNALQSGNSQESVTEQDSKDSTYSLSSTLTLSKADYEKHKVYACEVTHQGLSSPVTKSFNRGEC",19.8,0.0742,0.0355,0.00927,3.27,0.263,no binding,no binding,0.587,no binding,no binding,no binding,–,–,–
"G237E (antibody, human IgG1, kappa, HuAM4G7 anti-CD19 IgG1 (m1) with this Fc substitution, EU index; copies: 2 + 2) heavy: not shown light: DIVMTQSPATLSLSPGERATLSCRSSKSLQNVNGNTYLYWFQQKPGQSPQLLIYRMSNLNSGVPDRFSGSGSGTEFTLTISSLEPEDFAVYYCMQHLEYPITFGAGTKLEIKRTVAAPSVFIFPPSDEQLKSGTASVVCLLNNFYPREAKVQWKVDNALQSGNSQESVTEQDSKDSTYSLSSTLTLSKADYEKHKVYACEVTHQGLSSPVTKSFNRGEC",0.0147,100,–,–,0.00859,100,–,–,–,no binding,no binding,no binding,no binding,–,–
"G236P (antibody, human IgG1, kappa, HuAM4G7 anti-CD19 IgG1 (m1) with this Fc substitution, EU index; copies: 2 + 2) heavy: not shown light: DIVMTQSPATLSLSPGERATLSCRSSKSLQNVNGNTYLYWFQQKPGQSPQLLIYRMSNLNSGVPDRFSGSGSGTEFTLTISSLEPEDFAVYYCMQHLEYPITFGAGTKLEIKRTVAAPSVFIFPPSDEQLKSGTASVVCLLNNFYPREAKVQWKVDNALQSGNSQESVTEQDSKDSTYSLSSTLTLSKADYEKHKVYACEVTHQGLSSPVTKSFNRGEC",0.147,10,–,–,0.0859,10,–,–,–,no binding,no binding,no binding,no binding,–,–
"L234K (antibody, human IgG1, kappa, HuAM4G7 anti-CD19 IgG1 (m1) with this Fc substitution, EU index; copies: 2 + 2) heavy: not shown light: DIVMTQSPATLSLSPGERATLSCRSSKSLQNVNGNTYLYWFQQKPGQSPQLLIYRMSNLNSGVPDRFSGSGSGTEFTLTISSLEPEDFAVYYCMQHLEYPITFGAGTKLEIKRTVAAPSVFIFPPSDEQLKSGTASVVCLLNNFYPREAKVQWKVDNALQSGNSQESVTEQDSKDSTYSLSSTLTLSKADYEKHKVYACEVTHQGLSSPVTKSFNRGEC",0.0147,100,–,–,0.00859,100,–,–,–,no binding,no binding,no binding,no binding,–,–
"G237S (antibody, human IgG1, kappa, HuAM4G7 anti-CD19 IgG1 (m1) with this Fc substitution, EU index; copies: 2 + 2) heavy: not shown light: DIVMTQSPATLSLSPGERATLSCRSSKSLQNVNGNTYLYWFQQKPGQSPQLLIYRMSNLNSGVPDRFSGSGSGTEFTLTISSLEPEDFAVYYCMQHLEYPITFGAGTKLEIKRTVAAPSVFIFPPSDEQLKSGTASVVCLLNNFYPREAKVQWKVDNALQSGNSQESVTEQDSKDSTYSLSSTLTLSKADYEKHKVYACEVTHQGLSSPVTKSFNRGEC",0.147,10,–,–,0.081,10.6,–,–,–,no binding,no binding,no binding,no binding,–,–
"V266D (antibody, human IgG1, kappa, HuAM4G7 anti-CD19 IgG1 (m1) with this Fc substitution, EU index; copies: 2 + 2) heavy: not shown light: DIVMTQSPATLSLSPGERATLSCRSSKSLQNVNGNTYLYWFQQKPGQSPQLLIYRMSNLNSGVPDRFSGSGSGTEFTLTISSLEPEDFAVYYCMQHLEYPITFGAGTKLEIKRTVAAPSVFIFPPSDEQLKSGTASVVCLLNNFYPREAKVQWKVDNALQSGNSQESVTEQDSKDSTYSLSSTLTLSKADYEKHKVYACEVTHQGLSSPVTKSFNRGEC",0.147,10,–,–,0.704,1.22,–,–,–,no binding,no binding,no binding,no binding,–,–
"G237K (antibody, human IgG1, kappa, HuAM4G7 anti-CD19 IgG1 (m1) with this Fc substitution, EU index; copies: 2 + 2) heavy: not shown light: DIVMTQSPATLSLSPGERATLSCRSSKSLQNVNGNTYLYWFQQKPGQSPQLLIYRMSNLNSGVPDRFSGSGSGTEFTLTISSLEPEDFAVYYCMQHLEYPITFGAGTKLEIKRTVAAPSVFIFPPSDEQLKSGTASVVCLLNNFYPREAKVQWKVDNALQSGNSQESVTEQDSKDSTYSLSSTLTLSKADYEKHKVYACEVTHQGLSSPVTKSFNRGEC",0.0147,100,–,–,0.00859,100,–,–,–,no binding,no binding,no binding,no binding,–,–
"G236R (antibody, human IgG1, kappa, HuAM4G7 anti-CD19 IgG1 (m1) with this Fc substitution, EU index; copies: 2 + 2) heavy: not shown light: DIVMTQSPATLSLSPGERATLSCRSSKSLQNVNGNTYLYWFQQKPGQSPQLLIYRMSNLNSGVPDRFSGSGSGTEFTLTISSLEPEDFAVYYCMQHLEYPITFGAGTKLEIKRTVAAPSVFIFPPSDEQLKSGTASVVCLLNNFYPREAKVQWKVDNALQSGNSQESVTEQDSKDSTYSLSSTLTLSKADYEKHKVYACEVTHQGLSSPVTKSFNRGEC",0.0147,100,–,–,0.00859,100,–,–,–,no binding,no binding,no binding,no binding,–,–
"G237H (antibody, human IgG1, kappa, HuAM4G7 anti-CD19 IgG1 (m1) with this Fc substitution, EU index; copies: 2 + 2) heavy: not shown light: DIVMTQSPATLSLSPGERATLSCRSSKSLQNVNGNTYLYWFQQKPGQSPQLLIYRMSNLNSGVPDRFSGSGSGTEFTLTISSLEPEDFAVYYCMQHLEYPITFGAGTKLEIKRTVAAPSVFIFPPSDEQLKSGTASVVCLLNNFYPREAKVQWKVDNALQSGNSQESVTEQDSKDSTYSLSSTLTLSKADYEKHKVYACEVTHQGLSSPVTKSFNRGEC",–,–,–,–,–,–,–,–,–,no binding,no binding,no binding,no binding,no binding,no binding
"P329E (antibody, human IgG1, kappa, HuAM4G7 anti-CD19 IgG1 (m1) with this Fc substitution, EU index; copies: 2 + 2) heavy: not shown light: DIVMTQSPATLSLSPGERATLSCRSSKSLQNVNGNTYLYWFQQKPGQSPQLLIYRMSNLNSGVPDRFSGSGSGTEFTLTISSLEPEDFAVYYCMQHLEYPITFGAGTKLEIKRTVAAPSVFIFPPSDEQLKSGTASVVCLLNNFYPREAKVQWKVDNALQSGNSQESVTEQDSKDSTYSLSSTLTLSKADYEKHKVYACEVTHQGLSSPVTKSFNRGEC",0.147,10,–,–,0.0859,10,–,–,–,no binding,no binding,no binding,no binding,–,–
